T1: extROQ (Roquin, murine/human) (Mus musculus, UniProt Q4VGL6 89-404)
T1 sequence: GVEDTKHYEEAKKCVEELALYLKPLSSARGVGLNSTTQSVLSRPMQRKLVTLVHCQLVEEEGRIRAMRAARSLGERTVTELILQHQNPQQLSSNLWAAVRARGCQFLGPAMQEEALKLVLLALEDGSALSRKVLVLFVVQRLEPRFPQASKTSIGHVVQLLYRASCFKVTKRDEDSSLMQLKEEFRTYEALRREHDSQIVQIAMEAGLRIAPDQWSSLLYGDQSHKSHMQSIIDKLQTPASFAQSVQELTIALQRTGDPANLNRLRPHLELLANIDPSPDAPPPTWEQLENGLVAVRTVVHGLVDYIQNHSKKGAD

T2: coreROQ (Roquin, murine/human) (Mus musculus, UniProt Q4VGL6 171-326)
T2 sequence: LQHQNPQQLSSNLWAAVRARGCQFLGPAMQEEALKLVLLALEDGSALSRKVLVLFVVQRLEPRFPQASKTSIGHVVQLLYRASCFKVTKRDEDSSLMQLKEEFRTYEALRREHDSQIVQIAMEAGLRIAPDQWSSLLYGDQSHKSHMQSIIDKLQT


Assays:
Test in all cases: EMSA
[1] = target: T1, extROQ (Roquin, murine/human)
[2] = target: T2, coreROQ (Roquin, murine/human)
[3] = target: T2, coreROQ (Roquin, murine/human); remark: listed apart in the source

Binder	Kd [1]	Kd [2]	binding result [3]
GGCCAUCUGCACCGUUCUAGGUGCCGAACUGGCU (structured_RNA) [HS 3'bulge]	475 ± 62.6 nM	293 ± 149 nM	
GCCUGUAAGUACCCUCCACACCGUUCUAGGUGCUGGGCUUACUCUGGGC (structured_RNA) [dstem1]	1040 ± 139 nM	381 ± 94.8 nM	
GCCUGCCAGUACCCUCCACACCGUUCUAGGUGCUGGGCUGGCUCUGGGC (structured_RNA) [MM (murine Ox40 ADE wt)]	323 ± 139 nM	308 ± 57.2 nM	
GCCUGUAAGUACCCUCUACACCGUUCUAGGUGCUAGGCUUACUCUGGGC (structured_RNA) [dstem2]	978 ± 76.9 nM	451 ± 46.9 nM	
GUCCCCUCUGCGCCGUUUUAGGCGUUUCUGGGCUGGC (structured_RNA) [EL (elephant Ox40 ADE)]	778 ± 157 nM	534 ± 366 nM	
GCCCUGUGCCGUUUUAGGCGCUCCUGGGC (structured_RNA) [DK (dolphin/killer whale Ox40 ADE)]	847 ± 77.4 nM	480 ± 24.7 nM	
GGCCAACUCUGCACCGUUCUAGGUGCCGAUGGCU (structured_RNA) [HS (human Ox40 ADE wt)]	386 ± 63.7 nM	295 ± 29.6 nM	
GGCGAACAGUGCAGCGUUCUAGCUGCCCUUCGCU (structured_RNA) [HS low pur.]	673 ± 65.2 nM	432 ± 62.6 nM	
GGCCAGGACGCAGUAUUACUCUCGGGUC (structured_RNA) [OP (opossum ADE-like)]			no binding
GGUGUGUUUAUUUCAGGAGACA (structured_RNA) [LI (lizard putative ADE)]	1840 ± 403 nM		
GCACCCUCCCACACCGUUUUAGGUGUUCUGGGUG (structured_RNA) [HE (hedgehog Ox40 ADE)]	642 ± 119 nM	318 ± 17.2 nM	
GCCUGCCAGUCCACACCGUUCUAGGUGCUGGGCUGGCUCUGGGC (structured_RNA) [delta-bulge]	479 ± 188 nM	299 ± 41.6 nM	
GCCUGCCAGUCCACACCGUUCUAGGUGCUGGACCCUGCUGGCUCUGGGC (structured_RNA) [MM 3'bulge]	525 ± 60.1 nM	241 ± 15.6 nM	
GCCUGCCAGUACCCUCCAUAAAGUUCUAUUUACUGGGCUGGCUCUGGGC (structured_RNA) [dapical]	488 ± 373 nM		no binding
GCCGAGCCUGAGUUUAUACAGUCCUUUGUGC (structured_RNA) [CH (chicken putative ADE)]	4460 ± 717 nM		
